This note sets out measurements from patent publication US20180155451A1 (published 2018).

First the molecules themselves.
T1: FcγRIIb extracellular domain with C-terminal His tag (human, UniProt P31994 43-217)
T1 construct: extracellular domain; also called FcgRIIb; 2b; not shown: His tag at the C terminus
T1 sequence (looked up): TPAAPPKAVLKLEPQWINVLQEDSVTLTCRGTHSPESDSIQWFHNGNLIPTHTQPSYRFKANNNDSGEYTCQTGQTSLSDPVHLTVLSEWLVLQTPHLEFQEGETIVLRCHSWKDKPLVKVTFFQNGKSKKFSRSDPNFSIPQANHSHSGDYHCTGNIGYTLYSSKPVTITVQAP

T2: FcγRIIa H type extracellular domain with C-terminal His tag (human, UniProt P12318 34-217)
T2 construct: extracellular domain; also called FcgRIIa H; FcgRIIaH; not shown: His tag at the C terminus
T2 sequence (looked up): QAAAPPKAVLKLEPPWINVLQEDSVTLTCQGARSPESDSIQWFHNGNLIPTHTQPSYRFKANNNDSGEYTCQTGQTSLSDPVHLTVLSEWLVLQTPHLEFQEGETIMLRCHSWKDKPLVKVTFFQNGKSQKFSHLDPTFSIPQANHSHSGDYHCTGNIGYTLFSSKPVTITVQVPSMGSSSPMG

T3: FcγRIIa R type extracellular domain with C-terminal His tag (human, UniProt P12318 34-217)
T3 construct: extracellular domain; also called FcgRIIa R; FcgRIIaR; not shown: His tag at the C terminus
T3 sequence (looked up): T2 sequence (looked up) with H134R

B1: GpH7-A5/GpH7-HA5/GpL16-k0 (antibody, human IgG1, kappa)
heavy 1: not shown
heavy 2: QVQLVQSGAEVKKPGASVTVSCKASGYTFTDYEMHWIRQPPGEGLEWIGAIDPKTGDTAYSESFQDRVTLTADKSTSTAYMELSSLTSEDTAVYYCTRFYSYTYWGQGTLVTVSSASTKGPSVFPLAPSSKSTSGGTAALGCLVKDYFPEPVTVSWNSGALTSGVHTFPAVLQSSGLYSLSSVVTVPSSSLGTQTYICNVNHKPSNTKVDKKVEPKSCDKTHTCPPCPAPEYLGGPSVFLFPPKPKDTLMISRTPEVTCVVVDVSHEDPEVKFNWYVDGVEVHNAKTKPREEQYNSTYRVVSVLTVLHQDWLNGKEYKCKVSNKALRAPIEKTISKAKGQPREPQVYTLPPSRDELTKNQVSLTCLVKGFYPSDIAVEWESNGQPENNYKTTPPVLDSDGSFFLYSKLTVDKSRWQQGNVFSCSVMHEALHNHYTQESLSLSP
light: DIVMTQSPLSLPVTPGEPASISCQASESLVHSNRNTYLHWYLQKPGQSPQLLIYKVSNRFSGVPDRFSGSGSGTDFTLKISRVEAEDVGVYYCSQNTHVPPTFGQGTKVEIERTVAAPSVFIFPPSDEQLKSGTASVVCLLNNFYPREAKVQWKVDNALQSGNSQESVTEQDSKDSTYSLSSTLTLSKADYEKHKVYACEVTHQGLSSPVTKSFNRGEC
notes: Heterodimerized anti-glypican-3 IgG1 variant
B2: GpH7-A5/GpH7-HA6/GpL16-k0 (antibody, human IgG1, kappa)
heavy 1: not shown
heavy 2: B1 heavy 2 with Y232L, G234W
light: B1 light
notes: as for B1
B3: GpH7-A5/GpH7-HA7/GpL16-k0 (antibody, human IgG1, kappa)
heavy 1: not shown
heavy 2: B1 heavy 2 with Y232L, S237D
light: B1 light
notes: as for B1
B4: GpH7-A5/GpH7-HA15/GpL16-k0 (antibody, human IgG1, kappa)
heavy 1: not shown
heavy 2: B1 heavy 2 with Y232L, A328L
light: B1 light
notes: as for B1
B5: GpH7-A5/GpH7-HA11/GpL16-k0 (antibody, human IgG1, kappa)
heavy 1: not shown
heavy 2: B1 heavy 2 with Y232L, S296A
light: B1 light
notes: as for B1
B6: H240-FA009/H240-FB033/L73-k0 (antibody, human IgG1, kappa)
heavy 1: QDQLVQSGAEVKKPGASVKVSCKASGFNIKDTYIQWVRQAPGQGLEWMGRIDPLRKQTKYREKFEGRVTITADTSTNTAYMELSSLRSEDTAVYYCVRSGREFDYWGQGTLVTVSSASTKGPSVFPLAPSSKSTSGGTAALGCLVKDYFPEPVTVSWNSGALTSGVHTFPAVLQSSGLYSLSSVVTVPSSSLGTKTYICNVNHKPSNTKVDKKVEPKSCDKTHTCPPCPAPEYYWGPSVFLFPPKPKDTLMISRTPEVTCVVVDVSDEEPEVKFNWYVDGVEVHNAKTKPREEQYNATYRVVSVLTVLHQDWLNGKEYKCKVSNKALPAPIEKTISKAKGQPREPQVYTLPPSRKEMTKNQVSLTCLVKGFYPSDIAVEWESNGQPENNYKTTPPVLDSDGSFFLYSKLTVDKSRWQQGNVFSCSVMHEALHNRYTQKSLSLSP
heavy 2: QDQLVQSGAEVKKPGASVKVSCKASGFNIKDTYIQWVRQAPGQGLEWMGRIDPLRKQTKYREKFEGRVTITADTSTNTAYMELSSLRSEDTAVYYCVRSGREFDYWGQGTLVTVSSASTKGPSVFPLAPSSKSTSGETAALGCLVKDYFPEPVTVSWNSGALTSGVHTFPAVLQSSGLYSLSSVVTVPSSSLGTQTYICNVNHKPSNTKVDKKVEPKSCDKTHTCPPCPAPELLGGPSVFLFPPKPKDTLMISRTPEVTCVVVDVSHEEPEVQFNWYVDGVEVHNAKTKPREEQYNSTYRVVSVLTVLHQDWLNGKEYKCKVSNDALPMPIEETISKAKGQPREPQVYTLPPSREEMTKNQVSLTCLVKGFYPSDIAVEWESNGQPENNYKTTPPVLDSDGSFFLYSKLTVDKSRWQQGNVFSCSVMHEALHNHYTQESLSLSP
light: DIQMTQSPSSLSASVGDRVTITCRASQDIHKYIAWYQQKPGQAPRLLIQYTSTLQPGVPSRFSGSGSGTDYTFTISSLQPEDIATYYCLQYEQLRTFGGGTKVEIKRTVAAPSVFIFPPSDEQLKSGTASVVCLLNNFYPREAKVQWKVDNALQSGNSQESVTEQDSKDSTYSLSSTLTLSKADYEKHKVYACEVTHQGLSSPVTKSFNRGEC
notes: Heterodimerized anti-EREG IgG1 antibody; A chain altered from H240-AK072, B chain altered from H240-BH076
B7: H240-FA012/H240-FB001/L73-k0 (antibody, human IgG1, kappa)
heavy 1: B6 heavy 1 with E271K
heavy 2: B6 heavy 2 with E137G
light: B6 light
notes: as for B6
B8: H240-FA009/H240-FB047/L73-k0 (antibody, human IgG1, kappa)
heavy 1: B6 heavy 1
heavy 2: B6 heavy 2 with E137G, N383E
light: B6 light
notes: as for B6
B9: H240-FA009/H240-FB052/L73-k0 (antibody, human IgG1, kappa)
heavy 1: B6 heavy 1
heavy 2: B6 heavy 2 with E137G, K213T
light: B6 light
notes: as for B6
B10: H240-FA030/H240-FB001/L73-k0 (antibody, human IgG1, kappa)
heavy 1: B6 heavy 1 with I198T, E271K
heavy 2: B6 heavy 2 with E137G
light: B6 light
notes: as for B6
B11: H240-FA024/H240-FB001/L73-k0 (antibody, human IgG1, kappa)
heavy 1: B6 heavy 1 with I198T, E271K, M357K
heavy 2: B6 heavy 2 with E137G
light: B6 light
notes: as for B6

Changes are numbered by the printed parent chain.

T7 sequence (P08637 17-208 F176V): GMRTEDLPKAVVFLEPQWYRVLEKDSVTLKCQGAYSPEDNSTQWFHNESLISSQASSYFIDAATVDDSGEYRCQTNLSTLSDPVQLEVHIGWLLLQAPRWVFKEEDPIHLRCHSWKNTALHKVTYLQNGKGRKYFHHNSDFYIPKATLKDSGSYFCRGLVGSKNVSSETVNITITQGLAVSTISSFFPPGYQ
T5 sequence (P12314 16-292): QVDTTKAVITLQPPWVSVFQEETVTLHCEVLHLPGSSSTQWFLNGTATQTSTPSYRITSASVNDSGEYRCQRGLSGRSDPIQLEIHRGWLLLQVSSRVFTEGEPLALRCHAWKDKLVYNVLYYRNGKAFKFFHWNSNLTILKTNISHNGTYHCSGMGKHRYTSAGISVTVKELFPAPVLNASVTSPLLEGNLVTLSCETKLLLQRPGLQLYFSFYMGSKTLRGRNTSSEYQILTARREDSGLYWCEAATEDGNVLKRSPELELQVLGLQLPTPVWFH

The target in one test is T4, FcγRIIIa extracellular domain with C-terminal His tag (human, UniProt P08637 17-208).
T4 construct: extracellular domain; also called FcgRIIIa; CD16A
T4 sequence (P08637 17-208): as the sequence (P08637 17-208 F176V) above, with V160F counted along it
As to the kind of experiment: SPR (Biacore), antibody captured on antigen peptide chip, FcγR as analyte. The source says:
The expression vectors for the respective H chains were combined in a way that each of the alterations L234Y, G236W, S298A, S239D, A330L, and I332E is present in the same H chain as P329R or in the different H chain from P329R, and the expression vector GpL16-k0 for the L chain was combined with them. Antibodies of interest were expressed and prepared according to the method described in Reference Example 1. The prepared antibodies were used to assay the FcγRIIIa-binding activity. The result of assessment using P329R on the direction of FcγRIIIa recognition by L234Y, G236W, S298A, S239D, A330L, and I332E is summarized in Table 12.
Analysis of interaction between objective antibody and the FcγR was carried out using Biacore T100 (GE Healthcare). HBS-EP+ (GE Healthcare) was used as the running buffer, and the measurement temperature was set to 25° C. Chips produced by immobilizing the antigen peptide by the amine coupling method to a Series S Sencor Chip CM5 (GE Healthcare), or alternatively, chips produced by allowing preliminarily biotinylated antigen peptides to interact with and immobilize onto a Series S Sensor Chip SA (certified) (GE Healthcare) were used. Antibodies of interest were captured onto an antigen peptide-immobilized chip, and allowed to interact to each FcγR diluted with running buffer. To regenerate and repeatedly use the chip, the antibodies captured on the chip were washed off by reacting 10 mM glycine-HCl, pH 1.5.
As to B1, the “FcγRIIIa BINDING ACTIVITY (relative)” value is 60 relative, GpH7-A5/GpH7-B3/GpL16-k0 = 100.

Turning to B2, the “FcγRIIIa BINDING ACTIVITY (relative)” value was 56 relative, GpH7-A5/GpH7-B3/GpL16-k0 = 100.

B3: the “FcγRIIIa BINDING ACTIVITY (relative)” value is 3 relative, GpH7-A5/GpH7-B3/GpL16-k0 = 100.

Regarding B4, the “FcγRIIIa BINDING ACTIVITY (relative)” value is 32 relative, GpH7-A5/GpH7-B3/GpL16-k0 = 100.

On to B5, for which the “FcγRIIIa BINDING ACTIVITY (relative)” value was 84 relative, GpH7-A5/GpH7-B3/GpL16-k0 = 100.

The target in a further test is T1, FcγRIIb extracellular domain with …. Briefly: SPR (Biacore), antibody captured on chip, soluble FcgR as analyte; experiment 2. On the procedure:
(§1) Antibodies of interest were analyzed for the interaction to FcgR according to the method described in Reference Example 8.
(§2) Analysis of interaction between obj ective antibody and the FcγR was carried out using Biacore T100 (GE Healthcare), Biacore T200, Biacore A100, and Biacore 4000. HBS-EP+ (GE Healthcare) was used as the running buffer, and the measurement temperature was set to 25° C. Chips produced by immobilizing the antigen peptide by the amine coupling method to a Series S sensor Chip CM5 (GE Healthcare), chips produced by allowing preliminarily biotinylated antigen peptides to interact with and immobilize onto a Series S Sensor Chip SA (certified) (GE Healthcare), chips produced by immobilizing Protein L (ACTIGEN, BioVision) to Series S Sencor Chip CM5 (GE Healthcare), or chips produced by immobilizing Protein A/G (Thermo Scientific) to Series S Sencor Chip CM5 (GE Healthcare) were used. Antibodies of interest were captured onto these chips, and allowed to interact to each FcγR diluted with running buffer. To regenerate and repeatedly use the chip, the antibodies captured onto the chip were washed off by reacting 10 mM glycine-HCl, pH 1.5.
Take B6: the Kd was found to be 1600 nM.

In the case of B7, binding was put at a Kd of 1700 nM.

With B8, the Kd amounted to 1700 nM. This lies in the single-digit micromolar range.

Molecule B9 gave a Kd of 1400 nM.

B10 came in with an equilibrium dissociation constant (Kd) of 3300 nM.

Consider B11, for which the affinity, expressed as Kd, was 2000 nM.

Another test concerns the target T2, FcγRIIa H type extracellular domain …. Described as above. On the procedure: as §1, §2
In the case of B6, binding was put at a Kd of 80 nM. This counts as double-digit nanomolar.

Consider B7, for which the Kd came out at 110 nM.

As for B8, binding was characterised by a dissociation constant (Kd) of 74 nM. This Kd and that of the molecule before are within 1.5-fold of each other.

As to B9, binding was characterised by a dissociation constant (Kd) of 72 nM.

In turn, B10 yielded a Kd of 120 nM.

As for B11, the dissociation constant Kd turned out to be 110 nM.

The target in a further test is T3, FcγRIIa R type extracellular domain …. The test is described as above. As to the method: as §1, §2
On to B6, for which the affinity, expressed as Kd, was 310 nM.

B7 yielded an equilibrium dissociation constant (Kd) of 350 nM.

On to B8, for which the Kd is 270 nM.

The molecule B9 registered a dissociation constant Kd of 270 nM.

B10 registered a Kd of 440 nM.

Molecule B11 showed a Kd of 370 nM. The Kd values of the last two molecules are within 1.5-fold of each other.

The next test addresses T5, FcγRIa extracellular domain with C-terminal His tag (human, UniProt P12314 16-292).
T5 construct: extracellular domain; also called FcgRI; FcgRIa; not shown: His tag at the C terminus
The test is described as above. As to the method:
as §1, §2
B6 displayed a Kd of 0.12 nM.

B7: the Kd stood at 0.076 nM.

Consider B8, for which the Kd stood at 0.05 nM.

B9 yielded a Kd of 0.051 nM.

In the case of B10, the Kd stood at 0.036 nM.

B11 yielded a dissociation constant Kd of 1.8 nM.

A further test deals with T6, FcγRIIIa F type extracellular domain with C-terminal His tag (human, UniProt P08637 17-208).
T6 construct: extracellular domain; also called FcgRIIIa F; FcgRIIIaF; not shown: His tag at the C terminus
T6 sequence (P08637 17-208): as the sequence (P08637 17-208 F176V) above, with V160F counted along it
The test is described as above. As to the method: as §1, §2
In the case of B6, the equilibrium dissociation constant (Kd) stood at 3.4 nM.

The molecule B7 showed a Kd of 6.3 nM.

In turn, B8 had a dissociation constant (Kd) of 4.4 nM.

For the molecule B9, binding was put at a Kd of 4.3 nM.

B10 displayed a Kd of 6.4 nM.

Take B11: binding was characterised by a dissociation constant (Kd) of 6.7 nM. The Kd values of the last two molecules are within 1.5-fold of each other.

The next test concerns the target T7, FcγRIIIa V type extracellular domain with C-terminal His tag (human, UniProt P08637 17-208).
T7 construct: extracellular domain; also called FcgRIIIa V; FcgRIIIaV; not shown: His tag at the C terminus
The description is as above. On the procedure: as §1, §2
Take B6: the equilibrium dissociation constant (Kd) came out at 1 nM.

As to B7, the affinity, expressed as Kd, was 1.5 nM. This Kd is about 1.5-fold higher than that of the molecule before.

On to B8, for which the equilibrium dissociation constant (Kd) came out at 1.1 nM.

B9: the Kd is 0.89 nM.

B10 yielded a dissociation constant (Kd) of 1.7 nM.

B11 had a Kd of 1.9 nM.

The term Kd denotes the equilibrium constant for the complex coming apart. Higher therefore signals lower affinity.
